Legend:
Assay in all cases: cells, lysate or membranes
[1] = substrate: CC(=O)C(=O)O; format: biochemical, Arabidopsis thaliana; details: 50 mM glutamate, 100 mM NH4Cl, 0.1 M Tris-HCl pH 8.0, 20°C, 10 µM PLP, unpurified extract
[2] = substrate: N[C@@H](CCC(=O)O)C(=O)O; format: biochemical, Arabidopsis thaliana; details: 10 mM pyruvate, 100 mM NH4Cl, 0.1 M Tris-HCl pH 8.0, 20°C, 10 µM PLP, unpurified extract
[3] = substrate: O=C(O)CCC(=O)C(=O)O; format: biochemical, Arabidopsis thaliana; details: 100 mM alanine, 0.1 M Tris-HCl pH 8.0, 20°C, 10 µM PLP, unpurified extract
[4] = substrate: C[C@H](N)C(=O)O; details: 10 mM 2-oxoglutarate, 0.1 M Tris-HCl pH 8.0, 20°C, 10 µM PLP, unpurified extract
[5] = substrate: O=C(O)CCC(=O)C(=O)O; format: biochemical, Saccharomyces cerevisiae; details: 100 mM alanine, 0.1 M Tris-HCl pH 8.0, 20°C, 10 µM PLP, unpurified extract
[6] = substrate: N[C@@H](CCC(=O)O)C(=O)O; format: biochemical, Pyrococcus furiosus; details: 10 mM pyruvate, 100 mM NH4Cl, 0.1 M Tris-HCl pH 8.0, 20°C, 10 µM PLP, unpurified extract
[7] = substrate: O=C(O)CCC(=O)C(=O)O; format: biochemical, Pyrococcus furiosus; details: 100 mM alanine, 0.1 M Tris-HCl pH 8.0, 20°C, 10 µM PLP, unpurified extract
[8] = substrate: CC(=O)C(=O)O; format: biochemical, Hordeum vulgare; details: 50 mM glutamate, 100 mM NH4Cl, 0.1 M Tris-HCl pH 8.0, 20°C, 10 µM PLP, unpurified extract
[9] = substrate: O=C(O)CCC(=O)C(=O)O; format: biochemical, Hordeum vulgare; details: 100 mM alanine, 0.1 M Tris-HCl pH 8.0, 20°C, 10 µM PLP, unpurified extract
[10] = substrate: N[C@@H](CCC(=O)O)C(=O)O; format: biochemical, Mus musculus; details: 10 mM pyruvate, 100 mM NH4Cl, 0.1 M Tris-HCl pH 8.0, 20°C, 10 µM PLP, unpurified extract
[11] = substrate: O=C(O)CCC(=O)C(=O)O; format: biochemical, Mus musculus; details: 100 mM alanine, 0.1 M Tris-HCl pH 8.0, 20°C, 10 µM PLP, unpurified extract

B1: AtAlaAT2 (Arabidopsis thaliana) (protein)
chain: SSTSEMSASDSTSSLPVTLDSINPKVLKCEYAVRGEIVNIAQKLQEDLKTNKDAYPFDEIIYCNIGNPQSLGQLPIKFFREVLALCDHASLLDESETHGLFSTDSIDRAWRILDHIPGRATGAYSHSQGIKGLRDVIAAGIEARDGFPADPNDIFLTDGASPAVHMMMQLLLSSEKDGILSPIPQYPLYSASIALHGGSLVPYYLDEATGWGLEISDLKKQLEEARSKGISVRALVVINPGNPTGQVLAEENQRDIVNFCKQEGLVLLADEVYQENVYVPDKKFHSFKKVARSLGYGEKDISLVSFQSVSKGYYGECGKRGGYMEVTGFTSDVREQIYKMASVNLCSNISGQILASLVMSPPKPGDDSYDSYMAERDGILSSMAKRAKTLEDALNSLEGVTCNRAEGAMYLFPRINLPQKAIEAAEAEKTAPDAFYCKRLLNATGVVVVPGSGFGQVPGTWHFRCTILPQEDKIPAIVNRLTEFHKSFMDEFRN
notes: untagged, pBAD18-Kan, E. coli TR61, desalted whole-protein extract, not purified
[1]
  Km: 5100 ± 900 µM
[2]
  Km: 4900 ± 1100 µM
[3]
  Km: 1000 ± 100 µM

B2: AtAlaAT1 (Arabidopsis thaliana) (protein)
chain: SASDSSSSLPVTLDTINPKVIKCEYAVRGEIVNIAQKLQEDLKTNKDAYPFDEIIYCNIGNPQSLGQQPITFFREVLALCSYTALLDESATHGLFSSDSIERAWKILDQIPGRATGAYSHSQGIKGLRDAIADGIEARDGFPADPNDIFMTDGASPGVHMMMQLLITSEKDGILCPIPQYPLYSASIALHGGTLVPYYLDEASGWGLEISELKKQLEDARSKGITVRALAVINPGNPTGQVLSEENQRDVVKFCKQEGLVLLADEVYQENVYVPDKKFHSFKKVARSMGYGEKDLALVSFQSVSKGYYGECGKRGGYMEVTGFTSDVREQIYKMASVNLCSNISGQILASLIMSPPKPGDDSYESYIAEKDGILSSLARRAKTLEEALNKLEGVTCNRAEGAMYLFPCLHLPQKAIAAAEAEKTAPDNFYCKRLLKATGIVVVPGSGFRQVPGTWHFRCTILPQEDKIPAIVDRLTAFHQSFMDEFRD
notes: as for B1
[4]
  Km: 2400 ± 500 µM
[1]
  Km: 100 ± 0 µM
[3]
  Km: 100 ± 0 µM

B3: AtGGAT1 (Arabidopsis thaliana) (protein)
chain: MALKALDYDTLNENVKKCQYAVRGELYLRASELQKEGKKIIFTNVGNPHALGQKPLTFPRQVVALCQAPFLLDDPNVGMLFPADAIARAKHYLSLTSGGLGAYSDSRGLPGVRKEVAEFIQRRDGYPSDPELIFLTDGASKGVMQILNCVIRGNGDGILVPVPQYPLYSATISLLGGTLVPYYLDESENWGLDVANLRQSVAQARSQGITVRAMVIINPGNPTGQCLSEANIREILKFCYNEKLVLLGDEVYQQNIYQDERPFISSKKVLMEMGSPFSKEVQLVSFHTVSKGYWGECGQRGGYFEMTNLPPRVVEEIYKVASIALSPNVSAQIFMGLMVNPPKPGDISYDQFARESKGILESLRRRARLMTDGFNSCKNVVCNFTEGAMYSFPQIRLPTGALQAAKQAGKVPDVFYCLKLLEATGISTVPGSGFGQKEGVFHLRTTILPAEDEMPEIMDSFKKFNDEFMTQYDNNFGYSKM
notes: as for B1
[4]
  Km: 1900 ± 500 µM
[1]
  Km: 600 ± 100 µM
[3]
  Km: 200 ± 100 µM

B4: ScAlaAT1 (Saccharomyces cerevisiae S288C) (protein)
chain: SSSWIVAQNHRRSLSGQSSLNDLRHLNRFPHHTLKTSNNEFYPAEQLTLEDVNENVLKAKYAVRGAIPMRAEELKAQLEKDPQSLPFDRIINANIGNPQQLQQKPLTYYRQVLSLLQYPELLNQNEQQLVDSKLFKLDAIKRAKSLMEDIGGSVGAYSSSQGVEGIRKSVAEFITKRDEGEISYPEDIFLTAGASAAVNYLLSIFCRGPETGVLIPIPQYPLYTATLALNNSQALPYYLDENSGWSTNPEEIETVVKEAIQNEIKPTVLVVINPGNPTGAVLSPESIAQIFEVAAKYGTVVIADEVYQENIFPGTKFHSMKKILRHLQREHPGKFDNVQLASLHSTSKGVSGECGQRGGYMELTGFSHEMRQVILKLASISLCPVVTGQALVDLMVRPPVEGEESFESDQAERNSIHEKLITRAMTLYETFNSLEGIECQKPQGAMYLFPKIDLPFKAVQEARHLELTPDEFYCKKLLESTGICTVPGSGFGQEPGTYHLRTTFLAPGLEWIKKWESFHKEFFDQYRD
notes: as for B1
[4]
  Km: 300 ± 100 µM
[5]
  Km: 500 ± 100 µM

B5: PfAlaAT (Pyrococcus furiosus DSM 3638) (protein)
chain: MIRASKRALSVEYAIRDVVLPARELEKKGIKVIRLNIGDPVKFDFQPPEHMKEAYCKAIKEGHNYYGDSEGLPELRKAIVEREKRKNGVDITPDDVRVTAAVTEALQLIFGALLDPGDEILVPGPSYPPYTGLVKFYGGKPVEYRTIEEEDWQPDIDDIRKKITDRTKAIAVINPNNPTGALYDKKTLEEILNIAGEYEIPVISDEIYDLMTYEGEHISPGSLTKDVPVIVMNGLSKVYFATGWRLGYMYFVDPENKLSEVREAIDRLARIRLCPNTPAQFAAIAGLTGPMDYLKEYMKKLKERRDYIYKRLNEIPGISTTKPQGAFYIFPKIEVGPWKNDKEFVLDVLHNAHVLFVHGSGFGEYGAGHFRAVFLPPIEILEEAMDRFEKFMKERLKE
notes: as for B1
[6]
  Km: 900 ± 100 µM
[7]
  Km: 20 ± 0 µM

B6: AtGGAT2 (Arabidopsis thaliana) (protein)
chain: MSLKALDYESLNENVKNCQYAVRGELYLRASELQKEGKKIIFTNVGNPHALGQKPLTFPRQVVSLCQAPFLLDDPNVGMIFPADAIARAKHYLSLTSGGLGAYSDSRGLPGVRKEVAEFIERRDGYPSDPELIFLTDGASKGVMQILNCVIRGQKDGILVPVPQYPLYSATISLLGGTLVPYYLEESENWGLDVNNLRQSVAQARSQGITVRAMVIINPGNPTGQCLSEANIREILRFCCDERLVLLGDEVYQQNIYQDERPFISSKKVLMDMGAPISKEVQLISFHTVSKGYWGECGQRGGYFEMTNIPPRTVEEIYKVASIALSPNVSAQIFMGLMVSPPKPGDISYDQFVRESKGILESLRRRARMMTDGFNSCKNVVCNFTEGAMYSFPQIKLPSKAIQAAKQAGKVPDVFYCLKLLEATGISTVPGSGFGQKEGVFHLRTTILPAEEEMPEIMDSFKKFNDEFMSQYADNFGYSRM
notes: as for B1
[4]
  Km: 1200 ± 100 µM
[1]
  Km: 18500 ± 2700 µM
[3]
  Km: 8800 ± 1800 µM

B7: HvAlaAT (Hordeum vulgare) (protein)
chain: MAATVAVDNLNPKVLKCEYAVRGEIVIHAQRLQEQLKTQPGSLPFDEILYCNIGNPQSLGQQPVTFFREVLALCDHPDLLQREEIKTLFSADSISRAKQILAMIPGRATGAYSHSQGIKGLRDAIASGIASRDGFPANADDIFLTDGASPGVHLMMQLLIRNEKDGILVPIPQYPLYSASIALHGGALVPYYLNESTGWGLETSDVKKQLEDARSRGINVRALVVINPGNPTGQVLAEENQYDIVKFCKNEGLVLLADEVYQENIYVDNKKFHSFKKIVRSLGYGEEDLPLVSYQSVSKGYYGECGKRGGYFEITGFSAPVREQIYKIASVNLCSNITGQILASLVMNPPKASDESYASYKAEKDGILASLARRAKALEHAFNKLEGITCNEAEGAMYVFPQICLPQKAIEAAKAANKAPDAFYALRLLESTGIVVVPGSGFGQVPGTWHFRCTILPQEDKIPAVISRFTVFHEAFMSEYRD
notes: untagged, from cDNA, pBAD18-Kan, E. coli TR61, desalted whole-protein extract, not purified
[8]
  Km: 100 ± 0 µM
[9]
  Km: 200 ± 0 µM

B8: MmAlaAT1 (Mus musculus) (protein)
chain: ASQRNDRIQASRNGLKGKVLTLDTMNPCVRRVEYAVRGPIVQRALELEQELRQGVKKPFTEVIRANIGDAQAMGQRPITFFRQVLALCVYPNLLSSPDFPEDAKRRAERILQACGGHSLGAYSISSGIQPIREDVAQYIERRDGGIPADPNNIFLSTGASDAIVTMLKLLVAGEGRARTGVLIPIPQYPLYSAALAELDAVQVDYYLDEERAWALDIAELRRALCQARDRCCPRVLCVINPGNPTGQVQTRECIEAVIRFAFEEGLFLMADEVYQDNVYAEGSQFHSFKKVLTEMGPPYATQQELASFHSVSKGYMGECGFRGGYVEVVNMDAEVQKQMAKLMSVRLCPPVPGQALMGMVVSPPTPSEPSFKQFQAERQEVLAELAAKAKLTEQVFNEAPGIRCNPVQGAMYSFPQIQLPLKAVQRAQDLGLAPDMFFCLCLLEETGICVVPGSGFGQQEGTYHFRMTILPPMEKLRVLLEKLRHFHAKFTHEYS
notes: as for B1
[10]
  Km: 13000 ± 2400 µM
[11]
  Km: 100 ± 100 µM
